Assay results from the nanobody polyreactivity screen of Harvey et al. (2022).

Experiment: yeast display, Sf9 membrane polyspecificity reagent, FACS + sequencing; frameworks hold sequencing errors
Method in brief: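 A nanobody's polyreactivity label depends on the gate it was sorted from. Yeast display cells were stained with 10% biotinylated, detergent-solubilized Sf9 membrane reagent for 1 hour at 4 °C, enriched on streptavidin microbeads and sorted by FACS. The low and high (top ~1%) gates were set on anti-HA fluorescence for expression and streptavidin fluorescence for reagent binding.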

**Q.** For “QVQLVESGGGLVQAGGSLRLSCAASGLTIRYYAMGWYRQAPGKERELVAAITRGGSTYYADSVKGRFTISRDNAKNTVYLQMNSLKPDDTAVYYCAAYDVRYNTYDYDYWGQGTQVTVSS”, which “polyreactivity (PSR sort gate)” value is on record?
**A.** The value was “high polyreactivity”.

**Q.** With “QVQLVESGGGLVQAGGSLRLSCAASGLTIWRYAMGWYRQAPGKEREFVATISQNGGRTYYADSVKGRFTISRDNAKNTVYLQMQSLKPEDTAVYYCAADDWRWGYDYWGQGTQVTVSS” as the sequence, how does the “polyreactivity (PSR sort gate)” value read?
**A.** The value was “high polyreactivity”.

**Q.** Which “polyreactivity (PSR sort gate)” value does the source give for “QVQLVESGGGLVQAGGSLRLSCAASGLTLAWYAMGGYRQAPGKERELVAAISWSGDSTYYADSVKGRFTISRDNAKNTVYLQMNSLKPEDTAVYYCATRVYGGYGYWGQGTQVTVSS” here?
**A.** Its value is “high polyreactivity”.

**Q.** For “QVQLVESGGGLVQAGGSLRLSCAASGLTLRRYAMGWYRQAPGKEREMVASINSGTSTKYADSVKGRFTISRDNAKNTVYLQMNSLKPEDTAVYYCGAAGYFPTAGSRRAYYYWGQGTQVSVSS”, which “polyreactivity (PSR sort gate)” value is on record?
**A.** The value was “high polyreactivity”.

**Q.** Which “polyreactivity (PSR sort gate)” value does the source give for “QVQLVESGGGLVQAGGSLRLSCAASGLTLTYYAMGWYRQAPGKERELVAAISRSGGSTHYADSVKGRFTISRDNAKNTVYLQMNSLKPEDTAVYYCNAQQGRYWSAKGYDYWGQGTQVTVSS” here?
**A.** The value was “high polyreactivity”.

**Q.** With “QVQLVESGGGLVQAGGSLRLSCAASGLTLYRNAMGWYRPAPGKVRELVAAITKSGARTYYADSVKGRFTISRDNAKNTVYLQMNSLKPEDTAVYYCAADALNTYNYWGQGTQVTVSS” as the sequence, how does the “polyreactivity (PSR sort gate)” value read?
**A.** The value was “high polyreactivity”.

**Q.** With “QVQLVESGGGLVQAGGSLRLSCAASGLTLYYYAMGWYRQAPGKERELVAAISYSGGSTYYADSVKGRFTISRDNAKNTVYLQMNSLKPEDTAVYYCAADGDSDIRDDYWGQGTQVTVSS” as the sequence, how does the “polyreactivity (PSR sort gate)” value read?
**A.** The value was “low polyreactivity”.

**Q.** With “QVQLVESGGGLVQAGGSLRLSCAASGLTSTDNAMGWYRQAPGKERELVAGITTGGSTYYADSVKGRFTISRDNAKNTVYLQMNSLKPEDTAVYYCNAPTYADTTYDYWGQGTQVTVSS” as the sequence, how does the “polyreactivity (PSR sort gate)” value read?
**A.** The value was “low polyreactivity”.

**Q.** Which “polyreactivity (PSR sort gate)” value does the source give for “QVQLVESGGGLVQAGGSLRLSCAASGMGWYRQAPGKERELVARISGGVSTNYADSVKGRFTISRDNAKNTVYLQMNSLKPEDTAVYYCAADPLDTYDYWGQGTQVTVSS” here?
**A.** Its value is “low polyreactivity”.

**Q.** Which “polyreactivity (PSR sort gate)” value does the source give for “QVQLVESGGGLVQAGGSLRLSCAASGMICGVYAMGWYRQAPGKERELVAAIDGNGSSTYYADSVKGRFTISRDNAKNTVYLQMNSLKPEDTAVYYCAAGYWSYLYYWYDFDYWGQGTQVTVSS” here?
**A.** Its value is “low polyreactivity”.

**Q.** For “QVQLVESGGGLVQAGGSLRLSCAASGMIFSDYSMGWYRQATGKERELVATITRSVRTSYADSVKGRFTISSDNAKNTVYLQMNSLKPEDTAVYYCNADVVGAVIAFDYWGQGTQVTVSS”, which “polyreactivity (PSR sort gate)” value is on record?
**A.** Its value is “low polyreactivity”.

**Q.** Which “polyreactivity (PSR sort gate)” value does the source give for “QVQLVESGGGLVQAGGSLRLSCAASGMTFSKYVMGWYRQAPGKERELVAAITWSGGRTYYADSVKGRFTISRDNAKNTVYLQMNSLKPEDTAVYYCNSKLKGLGYEYDYWGQGTQVTVSS” here?
**A.** Its value is “high polyreactivity”.

**Q.** For “QVQLVESGGGLVQAGGSLRLSCAASGNAMGWYRQAPGKERDLVAAITRRGGSTYYADSVKGRFTISRDNAKNTVYLQMNSLKPEDTAVYYCAADNPSYNLWYGYWGQGTQVTVSS”, which “polyreactivity (PSR sort gate)” value is on record?
**A.** The value was “low polyreactivity”.

**Q.** Which “polyreactivity (PSR sort gate)” value does the source give for “QVQLVESGGGLVQAGGSLRLSCAASGNAMGWYRQAPGKERELVAAITRRGGSTYYADSVKGRFTISRDNAKNTVYLQMNSLKPEDTAVYYCAAENPSYNLCYGYWGQGTQVTVSS” here?
**A.** The value was “low polyreactivity”.

**Q.** For “QVQLVESGGGLVQAGGSLRLSCAASGNHLRSLSLGWNRQAPGKQRELVAAITSSGASTYYADSVKGRFTNSRDNAKNSVYLQMNSLKPEDSAVYYCAAYLFRRYDYWGQGTQVSVSS”, which “polyreactivity (PSR sort gate)” value is on record?
**A.** Its value is “low polyreactivity”.

**Q.** For “QVQLVESGGGLVQAGGSLRLSCAASGNIFDLYAMGWYRQAPGKERELVAAITRSSSRTYYADSVKGRFTISRDNAKNTVYLQMNSLKPEDTAVYYCNKRWITSYYTRYDYWGQGTQVTVSS”, which “polyreactivity (PSR sort gate)” value is on record?
**A.** The value was “high polyreactivity”.

**Q.** Which “polyreactivity (PSR sort gate)” value does the source give for “QVQLVESGGGLVQAGGSLRLSCAASGNIFDPYAMGWYIQAPGKERELVAVINASGDSTYYADSVKGRFTISRDNAKNTVYLQMNSLKPEDTAVYYCAADHRGEYDYWGQGTQVTVSS” here?
**A.** The value was “low polyreactivity”.

**Q.** Which “polyreactivity (PSR sort gate)” value does the source give for “QVQLVESGGGLVQAGGSLRLSCAASGNIFEYYAMGWYRQAPGKERELVATITSGGSTNYADSVKGRFTISRDNAKNTVYLQMNSLKPEDTAVYYCNADIISVSVYYFIVEYDYWGQGTQVTVSS” here?
**A.** Its value is “low polyreactivity”.

**Q.** Which “polyreactivity (PSR sort gate)” value does the source give for “QVQLVESGGGLVQAGGSLRLSCAASGNIFFGNTMGWYRQAPGKERELVAAISRSGGSTYYADSVKGRFTISRDNAKNTVYLQMNSLKPEDTAVYYCAAEYYGWPYDSWGQGTQVTVSS” here?
**A.** Its value is “high polyreactivity”.

**Q.** Which “polyreactivity (PSR sort gate)” value does the source give for “QVQLVESGGGLVQAGGSLRLSCAASGNIFFSNAMGWYRQAPGKERELVASISQSGGSTYYADSVKGRFTISRDNAKNTVYLQMNSLKPEDTAVFYCAATQVRRGPAWGRDYWGQGTQVTVSS” here?
**A.** Its value is “low polyreactivity”.

**Q.** For “QVQLVESGGGLVQAGGSLRLSCAASGNIFFTNAMGWYRQAPGKERELVATISFRGTSTYYADSVKGRFTISRDNAKKTVYLQMNSLKPEDTAVYYCAARYSVFHRARVNLLGWGLYYWGQGTQVTVSS”, which “polyreactivity (PSR sort gate)” value is on record?
**A.** The value was “low polyreactivity”.

**Q.** Which “polyreactivity (PSR sort gate)” value does the source give for “QVQLVESGGGLVQAGGSLRLSCAASGNIFGDYAMGWYRQAPGKERELVAAITQTGGNTYYADSVKGRFTISRDNAKNTVYLQMNSLKPEDTAVYYCNKVSVVYSRSKGFYYTYLKYEYWGQGTQVTVSS” here?
**A.** Its value is “low polyreactivity”.

**Q.** With “QVQLVESGGGLVQAGGSLRLSCAASGNIFGENAMGWYRQAPGKERELVAAITRIDGNTYYADSVKGRVTISRDNAKNTVYLQMNSLKPEDTAVYYCATDEPVGRYQHNYYWGQGTQVTVSS” as the sequence, how does the “polyreactivity (PSR sort gate)” value read?
**A.** The value was “low polyreactivity”.

**Q.** For “QVQLVESGGGLVQAGGSLRLSCAASGNIFGFNAMGWYRQAPGKERELVAAINSGGSTYYADSVKGRFTISRDNAKNTLYLQMNSLKPEDTAVYYCAAVRGKYRFGFWGQGTQVTVSS”, which “polyreactivity (PSR sort gate)” value is on record?
**A.** The value was “high polyreactivity”.

**Q.** Which “polyreactivity (PSR sort gate)” value does the source give for “QVQLVESGGGLVQAGGSLRLSCAASGNIFGLYAMGWYRQAPGTERELVAAISFSDTSTYYADSVKGRYTISRDNAKNTVYLQMNSLKPEDTAVYYCAAELWFNNGEHNYWGQGTQVTVSS” here?
**A.** The value was “high polyreactivity”.

**Q.** Which “polyreactivity (PSR sort gate)” value does the source give for “QVQLVESGGGLVQAGGSLRLSCAASGNIFGVNAMGWYRQAPGKERELVAAITCSDSSTNYADSVKGRFTISRDNAKNTVYLQMNSLKPEDTAVYYCATRVWRSAQSRWYGYDYWGQGTQVTVSS” here?
**A.** The value was “high polyreactivity”.

**Q.** For “QVQLVESGGGLVQAGGSLRLSCAASGNIFGYYAMGWYRQAPGKERELVAAITTTGGSTYYADSVKGRFTISRDNAKNTVYLQMNSLKPEDTAVYYCAAETGYWYYYWGQGTQVTVSS”, which “polyreactivity (PSR sort gate)” value is on record?
**A.** The value was “high polyreactivity”.

**Q.** For “QVQLVESGGGLVQAGGSLRLSCAASGNIFHVNAMGWYRQAPGKERELVAGITWSGGSTYYADSVKGRFTISRDNAKNTVYLQMNSLKPEDTAVYYCAATGWYFGYGRYGYWVQGTQVTVSS”, which “polyreactivity (PSR sort gate)” value is on record?
**A.** Its value is “high polyreactivity”.

**Q.** Which “polyreactivity (PSR sort gate)” value does the source give for “QVQLVESGGGLVQAGGSLRLSCAASGNIFIHYAMGWYRQAPGKERELVAAITWSGGSTYYADSVKGRFTISRDNAKNTVYLQMNSLTPEDTAVSYCNSVSKYGPADGYGDYWGQGTQVTVSS” here?
**A.** The value was “high polyreactivity”.

**Q.** With “QVQLVESGGGLVQAGGSLRLSCAASGNIFKHYAMGWYRQAPGKERELVAAITWSGGSTHYADSVKGLFTISRDNAKNTVYLQMNSLKPEDTAVYYCAARGWWPGTKWTRYDYWGQGTQVTVSS” as the sequence, how does the “polyreactivity (PSR sort gate)” value read?
**A.** The value was “high polyreactivity”.

**Q.** For “QVQLVESGGGLVQAGGSLRLSCAASGNIFKVYVMGWYRQAPGKERELVAAISGSGGSTYYADSVKGRFTISRDNAKNTVYLQMNSLKPEDTAVYYCNKVFKVTAARSFGYWGQGTQVTVSS”, which “polyreactivity (PSR sort gate)” value is on record?
**A.** The value was “low polyreactivity”.

**Q.** With “QVQLVESGGGLVQAGGSLRLSCAASGNIFKYYAMGWYRQAPGKERELVAAISWGGSRTYYADSVKGRFTISRDNAKNTVYFQMNILKPEDSAVYYCAAAPRYSWTSVPRYDYWGLGTQVTVSS” as the sequence, how does the “polyreactivity (PSR sort gate)” value read?
**A.** Its value is “high polyreactivity”.
